Data: patent publication US20080181886A1, “Polypeptides That Bind Baff And/Or April” (Genentech, Inc., priority 2004, published 2008)
Where a chain is given by its changes, count along the chain named. Numbers in names are those of the source.

B1: TACI_d2 Y79D (receptor)
chain: SLSCRKEQGKFDDHLLRDCISCASICGQHPKQCAYFCENKLR
B2: TACI_d2 R84P (receptor)
chain: B1 chain with D12Y, R17P
B3: TACI_d2 R84G (receptor)
chain: B1 chain with D12Y, R17G
B4: TACI_d2 Y79S (receptor)
chain: B1 chain with D12S
B5: TACI_d2 H96P (receptor)
chain: B1 chain with D12Y, H29P
B6: TACI_d2 Q95P (receptor)
chain: B1 chain with D12Y, Q28P
B7: TACI_d2 H96D (receptor)
chain: B1 chain with D12Y, H29D
B8: TACI_d2 L83P (receptor)
chain: B1 chain with D12Y, L16P

What follows are binders tested against Murine APRIL (mouse) (UniProt Q9D777) (assay: NNS library, phage display).
Sequence of Murine APRIL (mouse) (Q9D777 105-241 limits assumed): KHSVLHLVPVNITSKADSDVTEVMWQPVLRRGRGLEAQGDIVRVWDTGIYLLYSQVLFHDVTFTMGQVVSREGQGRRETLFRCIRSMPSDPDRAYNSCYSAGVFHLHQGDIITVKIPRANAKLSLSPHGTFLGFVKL

F' APRIL | Binder
0 | B1

These binders were tested against human BAFF (human) (UniProt Q9Y275) (assay: NNS library, phage display).
Sequence of human BAFF (human) (Q9Y275 82-285 limits assumed): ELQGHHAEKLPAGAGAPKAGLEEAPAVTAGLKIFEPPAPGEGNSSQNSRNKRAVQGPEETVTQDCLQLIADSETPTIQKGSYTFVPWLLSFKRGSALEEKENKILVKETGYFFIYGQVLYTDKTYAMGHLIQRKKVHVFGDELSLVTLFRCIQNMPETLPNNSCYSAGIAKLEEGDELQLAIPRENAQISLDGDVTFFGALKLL

F' BAFF | Binder
0 | B2
0 | B3
0 | B1
0 | B4

These binders were tested against Murine APRIL (mouse) (UniProt Q9D777) (assay: shotgun scan, phage display).

F (APRIL) | Binder
48 | B5
> 8.2 | B1

The binders below were run against human BAFF (human) (UniProt Q9Y275) (assay: shotgun scan, phage display).

F (BAFF) | Binder
> 54 | B6
> 29 | B7
> 52 | B2
20 | B5
13 | B3
15 | B8
> 9.5 | B1
> 36 | B4
